Tested on: T1, bifurcating NADP Fe-only hydrogenase of C. autoethanogenum
T1 sequence: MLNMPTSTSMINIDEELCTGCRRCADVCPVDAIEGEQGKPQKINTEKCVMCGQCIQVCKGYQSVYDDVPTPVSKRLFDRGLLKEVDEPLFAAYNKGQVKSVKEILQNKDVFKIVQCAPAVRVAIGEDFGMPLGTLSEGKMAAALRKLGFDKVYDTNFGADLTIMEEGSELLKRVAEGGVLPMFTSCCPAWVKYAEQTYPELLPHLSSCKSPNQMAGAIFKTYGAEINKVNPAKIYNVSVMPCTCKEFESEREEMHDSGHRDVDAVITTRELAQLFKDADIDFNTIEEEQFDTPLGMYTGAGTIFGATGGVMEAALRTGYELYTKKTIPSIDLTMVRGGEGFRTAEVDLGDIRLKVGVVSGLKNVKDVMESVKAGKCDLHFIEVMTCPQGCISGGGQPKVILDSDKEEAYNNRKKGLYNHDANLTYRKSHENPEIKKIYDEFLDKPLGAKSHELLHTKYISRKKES

## bifurcating NADP formate dehydrogenase of C. autoethanogenum
  Formate-hydrogen lyase activity (using H2): a high activity of 2.4 U/mg was detected

Source: US20140212976
